Results on 72 sequences are retold here after the supplement of paper PMC10567573.

± gives the standard deviation.

The nature of this data set: protein stability index of a GFP-peptide fusion (GPS, HEK-293T) (PSI 1-6); higher = more stable.
Where [1] appears, read: treatment: DMSO, c terminus: a fixed tail appended.
The mark [2] stands for this setting: treatment: MLN4924 1 uM, 8 h, c terminus: a fixed tail appended.
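Further: 24-mer peptide tiles fused after GFP, lentivirally expressed, FACS-sorted into six equal bins by GFP/DsRed ratio, decoded by Illumina sequencing, PSI is the read-weighted mean bin number.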

For the sequence STLLPLAPSNSTSLNSTFGSTNLT [NFE2L1], the protein stability index runs as follows: under setting [1], 3.64 ± 0.19; under setting [2], 3.86 ± 0.16.
Take EPGPAAYGLKPLTPNSKYVKLNVG [KCTD13]: the protein stability index runs as follows: under setting [1], 3.66 ± 0.11; under setting [2], 3.62 ± 0.31.
The matching figures for AFSSRLGGSRGAPGLLMAVGQDLY [DCAF4]: 2.19 ± 0.48 and 2.15 ± 0.38.
The matching figures for YVKPQSCIDIVIRHVAPIPSHYDV [MOSPD3]: 2.97 ± 0.74 and 2.74 ± 0.85.
Take AYCLDQGAEDGDRAILYPCHGMSS [GALNT9]: the protein stability index is, setting by setting: under setting [1], 3.67 ± 0.29; under setting [2], 3.69 ± 0.11.
The matching figures for DPEPSGPHLPRVMLPGVLAGVSAE [SCNN1D]: 4.59 ± 0.43 and 4.33 ± 0.21.
Turning to QHECVNTDDSYSCHCLKGFTLNPD [MATN2], the protein stability index reads like this: under setting [1], 4.04 ± 0.16; under setting [2], 4.15 ± 0.25.
The matching figures for LSYRNGYAIVRRPTVGIGGDRLQF [EFHC1]: 2.23 ± 0.24 and 2.35 ± 0.29.
For PPAADAPVTQIGFEAPPLQGQAAA [TRIM55], the protein stability index is, setting by setting: under setting [1], 5.07 ± 0.47; under setting [2], 5.15 ± 0.28.
For the sequence CIGLQNLKLLDELPIAKVMKDYLK [ASB7], the protein stability index came out at 2.11 ± 0.28 under setting [1] and 2.27 ± 0.39 under setting [2].
Regarding RAVNSLSMENANQENEEKEQVANK [BEX1], the protein stability index reads like this: under setting [1], 5.52 ± 0.24; under setting [2], 5.5 ± 0.34.
Regarding TSSLAQPGAYYPYERTLGQYQYER [IRX6], the protein stability index reads like this: under setting [1], 3.25 ± 0.38; under setting [2], 3.22 ± 0.21.
EEWGHQDPSKRALSRDTVQESYEN [ZNF263]: the protein stability index reads like this: under setting [1], 5.27 ± 0.4; under setting [2], 5.3 ± 0.23.
The matching figures for LDVDTAAGGFQQRQGLKYCLPLTF [FBXO3]: 2.42 ± 0.19 and 2.22 ± 0.45.
The corresponding values for SVILRRYFLELTQSFIIPLERYVA [DENND6A] are 2.33 ± 0.63 and 2.88 ± 0.75.
On to ISSMADFWDFAQGPLLDSLYWTKW [PKD2L1], for which the protein stability index is, setting by setting: under setting [1], 2.85 ± 1.3; under setting [2], 2.53 ± 1.6.
The corresponding values for SNLLSRFTRNEFNLESKSTIGVEF [RAB11A] are 2.36 ± 0.31 and 2.72 ± 0.49.
With YMNFRVKACNKAVAGEFSEPVTLE [FSD1], the protein stability index was 3.03 ± 0.29 under setting [1] and 2.93 ± 0.46 under setting [2].
The corresponding values for TMEDTLMTVKQYEAARLEYDAYRT [ARFIP2] are 3.88 ± 0.27 and 3.74 ± 0.3.
The matching figures for CSISKMEEEAGQTSIEPSKSSIIP [ZER1]: 4.59 ± 0.28 and 4.53 ± 0.2.
The matching figures for YSLTTSSTHKSSLCKVEIVCPPQS [RAB40A]: 2.64 ± 0.19 and 2.64 ± 0.12.
With FQEDVPMSTEEQYRIRQVNIYYYL [EFHC1], the protein stability index runs as follows: under setting [1], 2.52 ± 0.78; under setting [2], 2.22 ± 0.15.
The matching figures for DSGDVSNVIEKVKCILKTPGKINC [RHOBTB3]: 2.92 ± 0.21 and 2.87 ± 0.5.
The corresponding values for EKRNAGNAVRSAMKSEEQKIKDAR [KMT5A] are 4.72 ± 0.15 and 5.09 ± 0.21.
Consider NVNETDDWGRTALHYAAASDMDRN [ANKRD44], for which the protein stability index came to 4.69 ± 0.15 under setting [1] and 4.77 ± 0.33 under setting [2].
Turning to TMTNYDEAAMAIASLNGYRLGERV [ELAVL3], the protein stability index runs as follows: under setting [1], 3 ± 0.35; under setting [2], 3.17 ± 0.31.
Take SSSSKLSRSPLKIVKKPKSMQCKV [EPB41L3]: the protein stability index is 3.54 ± 0.11 under setting [1] and 3.41 ± 0.52 under setting [2].
The matching figures for EGSLQQPKAQSAMSPYLVPDTQAL [SMG5]: 4.39 ± 0.27 and 4.5 ± 0.18.
The corresponding values for QSYFKTIEDFQQKILLTKSENARL [KRT36] are 3.05 ± 0.42 and 2.77 ± 0.23.
The matching figures for QKCHSIGETDEVTKTEDRELVLRK [ZSCAN9]: 5.32 ± 0.3 and 5.37 ± 0.2.
On to VSRGGHGQQDLFRVLKAYTLYRPE [TBC1D10A], for which the protein stability index under setting [1] amounted to 2.06 ± 0.17 and the protein stability index under setting [2] was 2.12 ± 0.36.
On to CAVLLSAVQAQAGWLQHDFGHLSV [FADS1], for which the protein stability index is, setting by setting: under setting [1], 3.25 ± 0.5; under setting [2], 3.3 ± 0.65.
REVAKELGIPYYETSVVAQFGIKD [RHOBTB2]: the protein stability index is 3.2 ± 0.43 under setting [1] and 3.39 ± 0.27 under setting [2].
As to PIDVVEKYDPKTQEWSFLPSITRK [KLHL12], the protein stability index reads like this: under setting [1], 4.56 ± 0.27; under setting [2], 4.64 ± 0.33.
The corresponding values for FIVLFLLWPFAWLQVAGLSEEQLQ [LPCAT4] are 2.65 ± 0.13 and 3.05 ± 0.59.
Consider AGAFGYFQQDTKGLVDFRDVALAL [LPCAT4], for which the protein stability index was found to be 1.98 ± 0.18 under setting [1] and 2.12 ± 0.18 under setting [2].
The matching figures for TFPKALTNGSFSPSGNNGSVNWRT [DLC1]: 3.14 ± 0.14 and 3.19 ± 0.23.
The corresponding values for IAQAEEQARKRQEEREKEAAEQAE [SMARCE1] are 5.24 ± 0.12 and 5.892 ± 0.034.
The matching figures for ESIVPIPSSNEEIRLVDDAFGKIC [INTS4]: 4.05 ± 0.35 and 4.29 ± 0.32.
As for SSLSFFLKKMGKRLDYLNLKGARL [FBXO39], the protein stability index reads like this: under setting [1], 2.96 ± 0.66; under setting [2], 2.63 ± 0.43.
The corresponding values for VQYLQHLGTENLHLIFSYSVWVLR [VPS39] are 3.23 ± 0.39 and 2.96 ± 0.41.
On to CGGSGGGGGGGGGGGGCSSGSSYC [LURAP1L], for which the protein stability index is 3.28 ± 0.46 under setting [1] and 3.22 ± 0.22 under setting [2].
The matching figures for NFGEFKCSDSDKKCHLWTAMDLGF [CLCN6]: 2.19 ± 0.32 and 2.34 ± 0.46.
The matching figures for KLFFVDTGSKEKGLTKKRTKVQKK [NOP53]: 3.26 ± 0.13 and 3.83 ± 0.54.
Regarding MVLLIMKLDQLDQDIENALSTSSS [DLC1], the protein stability index by setting is: under setting [1], 2.69 ± 0.58; under setting [2], 2.49 ± 0.45.
The corresponding values for PRSAEPGYLVTKVVAVDRDSGQNA [PCDHGA10] are 4.77 ± 0.16 and 4.7 ± 0.29.
The matching figures for SEIKNYNFQQPGFTSGTGHFTAMV [GLIPR2]: 2.41 ± 0.58 and 2.77 ± 0.16.
The matching figures for FSKVKTSLGLDHCHSFISGTAPLN [ACSBG2]: 2.52 ± 0.3 and 2.44 ± 0.29.
Take TYVAKMSEPHYGHAGTVYGGVMYI [KLHL13]: the protein stability index stood at 3.32 ± 0.82 under setting [1] and 2.52 ± 0.45 under setting [2].
The corresponding values for QQCVDKESSLGSESEEEEEFYDAD [SLC22A15] are 5.52 ± 0.45 and 5.33 ± 0.33.
The corresponding values for SSGRELGRPKELQPKKLHLCPLCG [ZNF263] are 3.53 ± 0.2 and 3.99 ± 0.58.
KWFGRKRTLSAFLCLGGLACLIVM [SLC22A15]: the protein stability index by setting is: under setting [1], 5.07 ± 0.21; under setting [2], 5.17 ± 0.18.
As to PIVSSLADPLDTPPDSKEGIVVES [PDZK1], the protein stability index runs as follows: under setting [1], 5.37 ± 0.14; under setting [2], 5.25 ± 0.48.
In the case of DLSHIEGLSQAPQPLADEGPPGRS [SERTAD1], the protein stability index runs as follows: under setting [1], 5.11 ± 0.31; under setting [2], 5.14 ± 0.36.
The matching figures for RRDYLLLVMEGTDDGRLLEYDTVT [APMAP]: 2.26 ± 0.32 and 2.72 ± 0.13.
Regarding RISSPQVEEGDSRFLANEVLQENY [WEE1], the protein stability index under setting [1] came to 4.83 ± 0.44 and the protein stability index under setting [2] stood at 4.91 ± 0.13.
The corresponding values for WQRGLNTPEDSDPDHFDTAILFTR [ADAMTS4] are 3.54 ± 0.25 and 3.5 ± 0.46.
In the case of VVRICCIRSFGHFIARLQGSILQF [SMG5], the protein stability index under setting [1] was 2.57 ± 0.37 and the protein stability index under setting [2] was determined as 2.66 ± 0.57.
Take VDDLKGSLKEDLTQHKFICEQCGK [SPRY1]: the protein stability index reads like this: under setting [1], 5.03 ± 0.3; under setting [2], 4.88 ± 0.26.
Consider KPANILLDAHYHVKISDFGLAKCN [RIPK4], for which the protein stability index by setting is: under setting [1], 2.33 ± 0.22; under setting [2], 2.49 ± 0.23.
For the sequence GFIRFDKRIEAEEAIKGLNGQKPL [ELAVL3], the protein stability index reads like this: under setting [1], 3.66 ± 0.42; under setting [2], 4.08 ± 0.49.
The matching figures for NNSIKDLTDGHFENILADNSVNDQ [SERPINB5]: 5.32 ± 0.12 and 5.26 ± 0.25.
The corresponding values for GEKMVAAKVKGEKLDKKLKKMEQN [ATF4] are 5 ± 0.27 and 4.76 ± 0.18.
Take KQPLRKYVTPSDFDQLKQFLTFDK [EFHC1]: the protein stability index under setting [1] came out at 2.94 ± 0.18 and the protein stability index under setting [2] is 3.02 ± 0.17.
The matching figures for LLLHRGAGKEAMTSDGYTALHLAA [RIPK4]: 2.33 ± 0.25 and 2.22 ± 0.48.
The corresponding values for PLLPLDMQGNQILVFPSSSSSSSS [ZBTB22] are 3.93 ± 0.24 and 4.1 ± 0.18.
Consider TKKKQWCYNCEEEAMYHCCWNTSY [ZMYND11], for which the protein stability index under setting [1] was 2.6 ± 0.25 and the protein stability index under setting [2] amounted to 2.45 ± 0.4.
On to IEEACYAQTIPTKDRLEGLLAFKE [AUH], for which the protein stability index by setting is: under setting [1], 3.73 ± 0.46; under setting [2], 3.55 ± 0.69.
Consider TEAANAARHVAPEIRELLTQFET [PWWP2B], for which the protein stability index runs as follows: (treatment: DMSO, c terminus: native) 3.49 ± 0.21; (treatment: MLN4924 1 uM, 8 h, c terminus: native) 3.88 ± 0.29.
MYTPAYGDFDFDEVKFPNASDMFR [MYORG]: the protein stability index by setting is: under setting [1], 3.1 ± 0.3; under setting [2], 3.16 ± 0.26.
Consider RYFGARAILGEQRPRQRQRVYPKC [TCF25], for which the protein stability index was found to be 3.84 ± 0.32 under setting [1] and 3.58 ± 0.21 under setting [2].
The matching figures for SFSLVKLVLRRQLKNKCCPPPCKF [C22orf31]: 2.29 ± 0.47 and 2.35 ± 0.41.
